Measurements published in the nanobody polyreactivity screen of Harvey et al. (2022).

Assay: yeast display, Sf9 membrane polyspecificity reagent, FACS + sequencing; frameworks hold sequencing errors
Method in brief: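 Using colony PCR, genes from sorted yeast display clones were amplified, then sequenced on MiSeq at 2 × 250 and filtered by CDR length. The clones had been stained with 10% biotinylated, detergent-solubilized Sf9 membrane reagent for 1 hour at 4 °C and sorted by FACS into low and high (top ~1%) gates on anti-HA and streptavidin fluorescence. Polyreactivity labels come from the gate of origin.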

Row | Sequence | polyreactivity (PSR sort gate)
1 | QVQLVESWGGLVQAGGSLRLSCAASGSLFTSNAMVWYRQAPGKEREFVAGIDYSTGGTSYADSVKGRFTISRDNAKNNVYLQMNRLLPEDTAVYYCNADRWLVYVHTWEYDYWGQGTQVTVSS | low polyreactivity
2 | QVQLVESWGGLVQAGGSLRLSCAASGSTFTPYVMGWSRQAPGKERELVAAISKRGGSTYYADSVKGRFTISRDNANNSVYLQMNSLKPADTAVYYCAAVQPAWGNGYWGQGTQVTVSS | high polyreactivity
3 | QVQLVESWGGLVQAGGSLRLSCAASRIIFRWYAMGWYRKAPGTERELVAAITSDGNTYYADSVKGRFTISRDNAKNTVYLQMNSLKPEDTAVYYCAARLSYYCRMNYWGQGTQVNVSS | high polyreactivity
4 | QVQLVESWGGLVQAGGSLSLSCAASGRIIARNAMGWYRQAPGKEREFVAAISFSDGSTYYADSVKGRFTISRDNAKNTVYLQMNSLKPEDSAVYYCNKGASPDDYDYWGQGTQVTVSS | low polyreactivity
5 | QVQLVETAGGLVQAGGSLRLSSAASRSTFGPYAMGWYSQSPGKERELVAAISRRGTSTYYADSVKGRFTISRDNAKHTVYLQMNSLKPDDTAVYYCNAVTSSFYIRDSDYWGQGNQVTVSS | high polyreactivity
6 | QVQLVETGGCLVQAGGSLPLSCAASGRTFRPYAKGLYRPAPGKERELVAAITRGGSTKYADSVKGRFTISRDNAKNTVYLQMNSLKPEDTAVYYCAPDYSVYHRLFDYWGQGTQVTVSS | high polyreactivity
7 | QVQLVETGGGLDQAGGSLRLSCAASGFTLHRNAKGWYRQAPRKERELVATNSWTGGSTYYADSVKGRFTISRDTAKNTVYLQMNSLKPEDTAVYYCAARGHWSIYGYYYLGATAFGYWGQGTQVTVSS | low polyreactivity
8 | QVQLVETGGGLFQAGGSLRLSCAASGFSFGRYAMGWYRQAPGKERELVAAISRGGSSTYYADSVKGRFTISRDTAKNTVYLQMNSLKPEDTAVYYCNKVIIWARFDYWGQGTQVTVSS | high polyreactivity
9 | QVQLVETGGGLFQAGGSLRLSCAPSGFTFRYNAMGWYRQAPGKERELVAAISWSGGSTYYADSVKGRFTISRDNAKNTVYLQMNSLKPEDTAVYYSNAEYDDYAGEFDYWGQGTQVTGSS | low polyreactivity
10 | QVQLVETGGGLLQAGGSLRISSAASGRIFPSFSMGWYRQAPGKERELVAAITRGGASTYYADSVKGRFTISRDNAKNTVYLQMNSLKPEDTAVYYCAKDAYRYGGLSWTTGMDYWGQGTQVTVSS | high polyreactivity
11 | QVQLVETGGGLLQAGGSLRLSCAASGFTFDFYAMGWYRQAPGKERELVAAINWSGSSTYYADSVKGRFTISRDNAKNTVYLQMNSLKPEDTAVYYCAAQVYYTLFPDVYTMYYWGQGTQVTVSS | high polyreactivity
12 | QVQLVETGGGLVHAGGSLRLSCAASGSIFYAYDMGWYRQAPGKERELVAAINWSGDSTYYADSVKGRVTISRDNANNTVYLQMNSLKPEDTAVYYCAAVSGSGDSGEYDYWGQGTQVTVSS | low polyreactivity
13 | QVQLVETGGGLVHAGGSLRLSCAASGSILRPNAMGWYRQAPGKERELVAAITTSGGSTYYADSVKGRFTISRDNAKNTVYLQMNSLKPEDTAVYYCAAEYVYYYYLYLYYYWGQGTQVTVSS | high polyreactivity
14 | QVQLVETGGGLVHAGGSLRLSSAASGRTFVENDMGWYRQAPGKERELVAAITYRGGRTFYADSVKGSFTISRDNAKNTVYLQMNSRKPEDTAVYSCNAVRRTGGHGVYWGQGTQVTVSS | high polyreactivity
15 | QVQLVETGGGLVQAGGILLLSCAASRIIFPWYTMGWYRQAPGKERELVAAINYSSGDTYADSVKGRFTISRDNAKNTVYLQMNSLKPEDTAVYYCDAEDPEYATYWYKYGYWGLGTQVTVSS | low polyreactivity
16 | QVQLVETGGGLVQAGGILRLSCAASGSIFKAYAMGWYRQAPGKERELVAAITWSGGSTYYADSVKGRFTNSRDNAKNTVYLQMNSLKPEDTAVYYCAATLGLWAYYLYDYWGQGTQVTVSS | low polyreactivity
17 | QVQLVETGGGLVQAGGILRLSCAASGSTFYRNAMGWYRQAPGKERELVAAINSTDSTNYADSVKGRFTISRDNAKNTVYLQMNSLKPEDTAVYFCAAVGVNLATAEYDYWGQGTQVTVSS | low polyreactivity
18 | QVQLVETGGGLVQAGGILRLSCAATGSIFKAYDMGWYRKAPAKERELVAAITWSGGSTYYADSVKGRFTISRHNAKNTVYLQMNSLKPEDTAVYYCAAKLGLWAYYLYDYWGQGTQVTVSS | low polyreactivity
19 | QVQLVETGGGLVQAGGSHSLSCAAAGSTFSRYAMGWYRQAPGTETELVAGISWSGGNTYYADSVKGRVTISRDNAKNTVYLQMNSLKPEETAVYYCAADFLEYWVVYGWAEYEYWAQGTQVTVSS | low polyreactivity
20 | QVQLVETGGGLVQAGGSIRLTCAASGLTYTGNAIVWSRQAPGKEMECVAAIRWSAGSTYYADSVKGRFTISRDNAKNTVYLQMNSLKPEDTAVYYCNAALNVSGHYPNDYWGQGTQVTVSS | low polyreactivity
21 | QVQLVETGGGLVQAGGSLRISCAASGGIFVFYAMGWYRQAPGKERELVAAISWSGTSTYYADSVKGGFTISRDNAKYTVYLQMNRLKPEDTAVYYCAALYPYQYVRGGYWGQGTQVTVSS | high polyreactivity
22 | QVQLVETGGGLVQAGGSLRISCAASGRIFGVYAMGWYRQAPGKERELVAAITRGASTYYADSVKGRFTISRDNAKNTVYLQMNILKPEDTAVYYCAVSQYRGIYRKYDYWGQGTQVTVSS | high polyreactivity

Row | Sequence | polyreactivity (PSR sort gate)
23 | QVQLVETGGGLVQAGGSLRLRCAPSGSTFSEYAMGWYRQAPGKERELVPAITSGGITNYADSVKGRFTISRDNSKNTVYFKMNSLKPEDTAVYYCNTQDVYGDPVESLVDYDYWGQGTQVTVSS | high polyreactivity
24 | QVQLVETGGGLVQAGGSLRLSCAASGFIFYNAMGWYRQAPGKERELVAAISSGGNTNYADSVKGRFTISRDNAKNTVYLQMNSLKPEDTAVYYCNAGLYQYEAWAYYIRYDYWGQGTQVTVSS | low polyreactivity
25 | QVQLVETGGGLVQAGGSLRLSCAASGGIFEINVMGWYRQAPGKERELVAGINWSGTSTYFADSVKGRFTISRDNAKNTVYLQMNTLTPEDTSVYYCAAESYYRYVVPYDYWGQGTQVTVSS | high polyreactivity
26 | QVQLVETGGGLVQAGGSLRLSCAASGIIFDGNTMGWYRQAPGKERELVAGIDFSDDSTNYADSVKGRFTISRDNAKNTVYLQMNSLKPEDTAVYYCAADTRSPSAHEVDYWGQGTQVTVSS | low polyreactivity
27 | QVQLVETGGGLVQAGGSLRLSCAASGIIFSRYAMGWYRQAPGKERELVAAISTSGGRTFYADSVKGRFTISRDNAKNTVYLQMNSLKPEDTAVYYCAVDDLGWTTGGYLYLYGYWGQGTQVTVSS | high polyreactivity
28 | QVQLVETGGGLVQAGGSLRLSCAASGITFFEYAMGWYRQAPGKERELVAGIRYSGSTTYYSDSVKGRFTISRDNAKNTVYLQMNSLKPEDSAVYYCNVDYYSGLYDYYSWGQGTQVTVSS | low polyreactivity
29 | QVQLVETGGGLVQAGGSLRLSCAASGITFFRNAMGWYRQAPGKERELVAAISRGGGSTYYADSVKGRFTISRDNAKKTVYLQMNSLKPEDTAVYYCAEYKYGTGVKMDYWGQGTQVTVSS | high polyreactivity
30 | QVQLVETGGGLVQAGGSLRLSCAASGRIFRGNTMGWYRQAPGKERELVAAITIRGRTYYADSVKGRFTISRDNAKNTVYLQMNSLKPEDTAVYYCAVASAGDNDYGGQGTQVTVSS | low polyreactivity
31 | QVQLVETGGGLVQAGGSLRLSCAASGRIFVGYAKGWYRQAPGKERELVAAISARGGSTYYADSVKGRFTISRDNAKNTVYLQMNSLKPEDTAVYYCAADEASSRGYYDYDYWGQGTQVTVSS | low polyreactivity
32 | QVQLVETGGGLVQAGGSLRLSCAASGRTFAYNAMGWYRQAPGKARELVAAITGSGGRTYYADSVKGRFTISRDNAKNTVYLQMNSLKPEETAVYYCAAEGPEIKYYYWGQGTQVTVSL | low polyreactivity
33 | QVQLVETGGGLVQAGGSLRLSCAASGRTFAYYAMGWYRQAPGKERELVAAISSGGRTNYADSVKGLFTISRDNAKNTVYLQMNSLKPEDTAVYYCAAVRWVYPRRYYYWGQGTQVTVSS | high polyreactivity
34 | QVQLVETGGGLVQAGGSLRLSCAASGRTFEYNAMGWYRQAPGKERELVATIRYSGTSTYADSVKGRFTISRDNAKNPVYLQMNSQKPEDTAVYYCAKQVRYYGYKYNYWGQGTQVTVSS | high polyreactivity
35 | QVQLVETGGGLVQAGGSLRLSCAASGRTFQYYAMGWYRQATGTERELVAAITSGGSTYYADSVKGRFTISRDNAKKTVYLQMNSLKPEDTAVSYCAATFYYSGHDDYWGQVTQVTVSS | low polyreactivity
36 | QVQLVETGGGLVQAGGSLRLSCAASGRTFYYNGRGWYRQAPGKERELVAAITSGGTTSYADSVKGRFTISRDNAKNTVYLQMNSLKPEETAVYYCNADYWAVNYDYWGQGTQVTVSS | low polyreactivity
37 | QVQLVETGGGLVQAGGSLRLSCAASGRTLSQNTMGWNRQAPRKEREFVASITYSGGITYYADSVKGRFTISRDNAKNTVYLQMNSLKPEDTAVYYCNKRGSHYWYSYPGDYWGQGTQVTVSS | low polyreactivity
38 | QVQLVETGGGLVQAGGSLRLSCAASGRTYLIYAMGWYRQAPGKERELVAAIRDRGATTYYADSVKGRFTISRDNAKNTVYLQMNSLKPEETAVYYCAARNGAYPALKEGDYWGQGTQVTVSS | high polyreactivity
39 | QVQLVETGGGLVQAGGSLRLSCAASGSIADVYAMGWYRQAPGKERELVAAITSGASTYYADSVKGRFTISRDNAKNTVYLQMNSLKPEDTAVYYCTKSAAITGNGHMDYWGQGTQVTVSS | low polyreactivity
40 | QVQLVETGGGLVQAGGSLRLSCAASGSIFFLYAMGWYRQAPGKERELVAAISRTGSTYADSVKGRLTISRDNAKNTVYLQMNSLKPEDTAVYYCDAEYRYYWYGTMNYWGQGTQVTVSS | low polyreactivity
41 | QVQLVETGGGLVQAGGSLRLSCAASGSIFIYYAMGWYRQAPGKERELVAAIRLSSGSTYYADSVKGRFTISRDNSKNTVYLQMIRLKPEYTAVYYCAARRKRPFSVYDHWGKGTQVTVSS | high polyreactivity
42 | QVQLVETGGGLVQAGGSLRLSCAASGSIFLGNAMGWYRQAPGKERELVAAISGGDSTNYADSVKGRFTISRDNAKNTVYLQMKSLKPEDTAVYYCNALTHWAPASYEYDYWGQCTQVTVSS | low polyreactivity
43 | QVQLVETGGGLVQAGGSLRLSCAASGSIFTPYAIGWYRKAPGKDRELVAAITSRGGTTYYADSVKGRFTISRDNAKNTVYLQMNSLKPEDTAVYYCAAEYYHLYYYQFDYWGQGTQVTVSS | high polyreactivity
